Test results: PMC10156745, “Tuning charge density of chimeric antigen receptor optimizes tonic signaling and CAR-T cell fitness” (Cell Research, 2023)

Target: T1, CD19 on Nalm6 cells (Homo sapiens, UniProt P15391)
T1 construct: CD19 (B-lymphocyte antigen CD19) on the surface of Nalm6 cells; this is surmised; source: Nalm6 cells expressing CD19 on the cell surface
Assay: flow cytometry on cells; purified antibodies titrated on Nalm6 cells expressing CD19; cell-based FACS assay
Details: one partner purified

T1 sequence (P15391 20-556): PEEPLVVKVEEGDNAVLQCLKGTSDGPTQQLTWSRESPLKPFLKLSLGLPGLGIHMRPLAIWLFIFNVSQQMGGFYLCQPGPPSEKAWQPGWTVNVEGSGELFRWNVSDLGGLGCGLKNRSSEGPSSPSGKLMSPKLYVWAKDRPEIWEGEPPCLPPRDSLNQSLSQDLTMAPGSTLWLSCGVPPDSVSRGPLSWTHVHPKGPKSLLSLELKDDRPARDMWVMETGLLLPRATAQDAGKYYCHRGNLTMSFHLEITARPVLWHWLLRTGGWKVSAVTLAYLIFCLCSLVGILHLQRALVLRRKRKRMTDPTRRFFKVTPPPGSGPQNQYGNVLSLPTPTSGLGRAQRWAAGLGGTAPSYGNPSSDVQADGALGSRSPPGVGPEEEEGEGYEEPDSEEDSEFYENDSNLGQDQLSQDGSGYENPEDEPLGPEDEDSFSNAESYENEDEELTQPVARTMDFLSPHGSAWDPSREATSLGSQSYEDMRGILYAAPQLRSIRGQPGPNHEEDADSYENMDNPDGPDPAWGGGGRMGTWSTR

B1: CD19^M1 antibody (antibody, V domains shown)
VH: EVKLKESGPGLVAPSQSLSVTCKASGVSLPDYGVSWIRQPPRKGLEWLGVIWGSETTYYNSALKSRLTIIKDNSKSQVFLKMNSLQTDDTAIYYCAKHYYYGGSYAMDYWGQGTSVTVSS
VL: DIKMTQTTSSLSASLGDRVTISCRASQDISKYLNWYQQKPDGTVKLLIYHTSRLHSGVPSRFSGSGSGTDYSLTISNLEQEDIATYFCQQGNTLPYTFGGGTKLEIK
notes: as the VH of m1 (FMC63) with uncharged framework residues mutated to lysines; human IgG1 constant region, fused to the variable region in the pCMV plasmid; as the VL of m1 (FMC63) with uncharged framework residues mutated to lysines; light-chain constant region; IgG1 format; Variant of FMC63 with positively charged patches introduced into the framework regions; also called PCP-modified CD19 …
An EC50 of 2.6 nM was found for B1 in this work.
